Substitutions are numbered along the chain they refer to.
B1: RXP-B (peptide)
peptide: EIQPRSPLMFSGGGSAHARVPFYSHSAKEARWPRAHR
notes: Synthetic doublet peptide from the biased phage display screen
B2: Peptide 2503, AcRRKPRRKP-NH2 (peptide)
peptide: Ac-RRKPRRKP-NH2
B3: RXP-E (peptide)
peptide: SDDLRSPQLHNGGGSAVPFYSHSHMVRRKPRNPR
notes: as for B1
B4: 58 (peptide)
peptide: B3 peptide with R5A, P7A, R31A, P33A
notes: also called RXPE mutant (5,7,31,33pa)
B5: 29 (peptide)
peptide: B3 peptide with R31A, P33A
notes: also called RXPE mutant (31,33A)
B6: 31 (peptide)
peptide: B3 peptide with R5A, P7A, P30A, R31A
notes: also called RXPE mutant (5,7,30,31A)
B7: RXP-C (peptide)
peptide: GIAAREPNSHDGGGSAHARVPFYSHSRDLWRKPAKSL
notes: as for B1
B8: RXP-A (peptide)
peptide: DVPGRDPGYIKGGGSAHARVPFYSHSLNRNRKPSLYQ
notes: as for B1
B9: Peptide 2501, AcRNPRNP-NH2 (peptide)
peptide: Ac-RNPRNP-NH2
B10: Peptide 2504, AcRRKP-NH2 (peptide)
peptide: Ac-RRKP-NH2
B11: Peptide 2505, AcRRNP-NH2 (peptide)
peptide: Ac-RRNP-NH2
B12: RXP-D (peptide)
peptide: WEEPRRPFTMSGGGSAETHARVPFYSHSPMRHRLPGVHL
notes: as for B1

Assays:
[1] = target: T1, Recombinant Cx43CT (carboxyl terminal domain of rat connexin43, residues 255-382, preceded by GPLG) (rat, UniProt P08050 255-382); experiment: SPR, Cx43CT immobilized on carboxymethyl dextran
T1 construct: range 255-382; Made in E. coli as a GST fusion (pGEX-6P-2) and cleaved from GST; the protein used was derived from rat cDNA; 15N-labeled for NMR; also called recombinant CT; 15N-Cx43CT
Description: Recombinant Cx43CT was covalently bound to a carboxylmethyl dextran matrix (Salamon et al., “Surface Plasmon Resonance Spectroscopy as a Tool for Investigating the Biochemical and Biophysical Properties of Membrane Protein Systems. II: Applications to Biological Systems,” Biochim. Biophys. Acta 1331(2):131-152 (1997), which is hereby incorporated by reference in its entirety). Specific peptides were presented and, when feasible, dissociation constants (KD) were calculated from the time course of binding and unbinding of the ligand, using a 1:1 (Langmuir) association and dissociation kinetic model (Biacore software package). In both phases (association and dissociation), the first 5-8 seconds of recording were not included in the fit, to avoid artifacts resulting from peptide distribution within the flow cells (Lang et al., “Surface Plasmon Resonance as a Method to Study the Kinetics and Amplitude of Protein-protein Binding,” in PRACTICAL METHODS IN CARDIOVASCULAR […] 936-947 (Stefan Dhein, Friedrich Wilhelm Mohr & Mario Delmar eds., 2005), which is hereby incorporated by reference in its entirety).
Phage display allows for the rapid screening of thousands of peptides, but the characteristics of binding cannot be properly defined. Furthermore, the peptides are part of a capsid protein, which may affect the ability of the peptide to properly interact with the target protein. Therefore, some of the peptides identified by the phage screening were selected to, using SPR, further characterize their ability to bind Cx43CT. Recombinant Cx43CT was covalently bound to a carboxymethyl dextran matrix and synthetic peptides presented for binding. A total of six 12-mer peptides from the non-biased screening (peptides labeled RXP1 to RXP6 in Table 1) and 5 peptides from the biased screening (labeled RXP-A to RXP-E in Table 3) were tested. […] Peptide RXP4 (SEQ ID NO:15) caused the largest deflection in SPR signal. RXP4 (250 μM) was added at time “zero.” Washout was initiated after two minutes of exposure.

[2] = target: T1, Recombinant Cx43CT (carboxyl terminal …); experiment: SPR, peptide 1.0 mM
[3] = target: T1, Recombinant Cx43CT (carboxyl terminal …); experiment: SPR, Cx43CT immobilized, 1:1 Langmuir kinetic fit, pH 6.5 and 7.4
Description: A total of six 12-mer peptides from the non-biased screening (peptides labeled RXP1 to RXP6 in Table 1) and 5 peptides from the biased screening (labeled RXP-A to RXP-E in Table 3) were tested. […] Peptide RXP4 (SEQ ID NO:15) caused the largest deflection in SPR signal. RXP4 (250 μM) was added at time “zero.” Washout was initiated after two minutes of exposure. […] Higher concentrations of the peptide were tested but an asymptotic maximum response could not be detected. In addition, dissociation rates were too fast to reliably use them to calculate the kinetics of binding.
A different result emerged from the testing of the doublets. […] In contrast, peptide RXP-E (SEQ ID NO:10) generated a large, concentration-dependent deflection followed by a slow dissociation upon washout, as shown in FIG. 3B. The transitions were well-fit by exponential functions and the rates of association and dissociation were used as described in Example 4 to estimate the kinetic parameters. A full range of concentrations was tested in three separate occasions and at two different pHs of the solvent (6.5 and 7.4). No differences were observed as a function of pH.

[4] = target: Cx43 expressed in N2a cells (Cx43 gap junction channels); experiment: cell-based or functional assay
[5] = target: T2, Cx43 from rat heart lysate (rat, UniProt P08050 2-382); experiment: Cx43 pulldown assay, percent binding relative to RXPE; Example 19 does not state the source of Cx43
T2 construct: Native protein pulled down from a tissue lysate; also called cardiac Cx43
T2 sequence (P08050 2-382 limits assumed): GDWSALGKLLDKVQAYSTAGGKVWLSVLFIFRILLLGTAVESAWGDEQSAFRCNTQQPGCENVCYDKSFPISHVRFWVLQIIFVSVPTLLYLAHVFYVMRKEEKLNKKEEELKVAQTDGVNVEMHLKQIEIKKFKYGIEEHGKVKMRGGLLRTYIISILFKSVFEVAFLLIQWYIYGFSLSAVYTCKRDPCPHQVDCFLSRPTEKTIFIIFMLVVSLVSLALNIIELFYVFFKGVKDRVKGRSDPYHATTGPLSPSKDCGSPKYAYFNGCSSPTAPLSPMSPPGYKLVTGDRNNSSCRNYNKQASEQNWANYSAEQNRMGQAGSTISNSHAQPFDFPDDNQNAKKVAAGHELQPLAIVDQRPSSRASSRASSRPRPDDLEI

T1 sequence (P08050 other isoform, or with tags, fused parts or gaps limits assumed): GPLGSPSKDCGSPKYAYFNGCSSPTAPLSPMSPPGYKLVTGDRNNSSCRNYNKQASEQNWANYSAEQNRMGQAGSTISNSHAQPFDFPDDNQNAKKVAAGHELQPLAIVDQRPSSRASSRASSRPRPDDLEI

Binder	binding result [1]	Response Dose [2]	also measured
B1	no binding	–	–
B2	–	295 arbitrary units	–
B3	–	–	Kd [3]: 3.9 µM; junctional conductance (Gj) relative to control at pipette pH 6.2 (acidification-induced uncoupling) [4]: 57 % of control; junctional conductance (Gj) relative to control during octanol superfusion [4]: 57.6 % of control
B4	–	–	binding result [5]: no binding
B5	–	–	binding result [5]: no binding
B6	–	–	binding result [5]: no binding
B7	no binding	–	–
B8	no binding	–	–
B9	–	24.8 arbitrary units	–
B10	–	46.5 arbitrary units	–
B11	–	34.9 arbitrary units	–
B12	no binding	–	–
